This is an account of results in US7537764.

In the experiment the target is whole inactivated rabies virus (rabies virus). Description: phage ELISA on coated whole inactivated rabies virus. A general note: In an ELISA, binding on a coated surface is turned into a signal by an enzyme label.

B1: SC04-353 (scFv)
scFv: EVQLVQSGGGVVQPGRSLRLSCAASGFTFSNYAMHWVRQAPGKGLEWVAVISYDGGNKYYADSVKGRFTMSRDNSKNTLYLQMNSLRAEDTAVYYCARDFWSGYSMVDSYYYYMDVWGKGTTVTVSSGTGGSGGTGSGTGGSTETTLTQSPGTLSLSPGERATLSCRASQSVSNTFLAWYQQKPGQAPRLLIYGASSRATGIPDRFSGSGSGTDFTLTISRLEPEDFAAYYCQQYGSSLTFGPGTKVDIKR
As for B1, the OD 492 nm was found to be 0.057 OD.

B2: SC04-361 (scFv)
scFv: EVQLVQSGAEVKKPGESLKISCKASGFSFSTYWIGWVRQMPGKGLEWMGIIYPADSDTRYSPSFQGQVTISADKSISTAYLQWSSLKASDTAMYYCARLRGPYYDFWNGYRETHDAFNVWGQGTMVTVSSGTGGSGGTGSGTGGSTDVVMTQSPDSLAVSLGERATINCKSSQNILDNSDNKNFLAWYQQKPGQPPKLLIYWASARESGVPDRFSGSGSGTDFTLTISSLQAEDVALYYCQQYYNTPITFGQGTRLEIKR
Take B2: the OD 492 nm came out at 0.059 OD.

B3: SC04-374 (scFv)
scFv: QVTLKESGPTLVKPTQTLTLTCTFSGFSLSTSGVGVGWIRQPPGKALEWLAVIYWNDDKLYRPSLKSRLTITKDTSKNQVVLTMTKMDPVDTATYYCAHRHRYYDISGYYRLFSDAFDIWGQGTMVTVSSGTGGSGGTGSGTGGSTQSVVTQPPSVSGAPGQRVTISCTGSSSNIGAGYDVHWYQQLPGTAPKLLIYGNSNRPSGVPDRFSGSKSGTSASLAITGLQAEDEADYYCQSYDSSLSGSVFGGGTKLTVLG
Molecule B3 showed an OD 492 nm of 0.056 OD.
